Our source for the Kd values is paper PMC12494564, “CLIC5A binds to and stabilizes the open and active conformation of ezrin” (The Journal of Biological Chemistry, 2025).

By Kd is commonly meant the concentration at which binding is half-saturated. Read a low Kd as tighter binding.

This assay addresses GST-His6x-CLIC5A (human, UniProt Q9NZA1-2 1-251, fluorescent label from the Monolith His-Tag Labeling Kit RED-tris-nitriloacetic acid). The assay can be described thus: MST; 100 nM fluorescently labeled (RED-tris-NTA) GST-His6x-CLIC5A or GST-His6x, unlabeled ezrin_(482-586) from 412 μM to 12.6 nM in the labeling buffer; Monolith NT.115, ambient temperature, 40% MST power, 30% LED power. The conditions noted are these: both partners purified.

Sequence of GST-His6x-CLIC5A (Q9NZA1 other isoform, or with tags, fused parts or gaps): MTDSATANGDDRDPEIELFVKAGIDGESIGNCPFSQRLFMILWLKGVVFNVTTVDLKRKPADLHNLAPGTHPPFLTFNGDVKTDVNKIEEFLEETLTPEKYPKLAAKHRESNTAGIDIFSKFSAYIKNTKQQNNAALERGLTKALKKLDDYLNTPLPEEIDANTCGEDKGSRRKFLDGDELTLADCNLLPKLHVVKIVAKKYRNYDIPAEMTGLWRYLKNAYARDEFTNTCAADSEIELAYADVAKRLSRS

B1: ezrin_(482-586) (H549N/T567E) (domain or fragment, human, UniProt P15311 482-586, looked up)
chain: SYHVQESLQDEGAEPTGYSAELSSEGIRDDRNEEKRITEAEKNERVQRQLLTLSSELSQARDENKRTNNDIIHNENMRQGRDKYKELRQIRQGNTKQRIDEFEAL
notes: ezrin, human; Expression plasmid created by ATUM; not shown: PagP, N-terminal, cleaved
B1 gave a Kd of 29 µM.
